# Values quoted from earlier work in paper PMC3332193.
# Biological target: EGFR (Homo sapiens) (UniProt P00533)
substance,measurement,value
EGF (from UniProt P01133),Kd,< 12 nM
